This test addresses HLA-A*02:01 (Homo sapiens, UniProt P04439, D140Y/D185E/D98H/E176V/E277Q/G131W/G231S/I119V/I121R/I166T/I218V/L300P/L318F/N151K/N90K/P208A/P217A/Q86G/Q94H/R138H/R169H/T345S). In words: MHC binding assay (UV-ligand exchange, beta2m ELISA). Particulars: binding to HLA-A*02:01, β2m ELISA. The text has this:
Candidate peptides for T cell based therapies according to the present invention were further tested for their MHC binding capacity (affinity). The individual peptide-MHC complexes were produced by UV-ligand exchange, where a UV-sensitive peptide is cleaved upon UV-irradiation, and exchanged with the peptide of interest as analyzed. Only peptide candidates that can effectively bind and stabilize the peptide-receptive MHC molecules prevent dissociation of the MHC complexes. To determine the yield of the exchange reaction, an ELISA was performed based on the detection of the light chain (β2m) of stabilized MHC complexes. The assay was performed as generally described in Rodenko et al. (Rodenko et al., 2006).
96 well MAXISorp plates (NUNC) were coated over night with 2 ug/ml streptavidin in PBS at room temperature, washed 4× and blocked for 1 h at 37° C. in 2% BSA containing blocking buffer. Refolded HLA-A*02:01/MLA-001 monomers served as standards, covering the range of 15-500 ng/ml. Peptide-MHC monomers of the UV-exchange reaction were diluted 100 fold in blocking buffer. Samples were incubated for 1 h at 37° C., washed four times, incubated with 2 ug/ml HRP conjugated anti-β2m for 1 h at 37° C., washed again and detected with TMB solution that is stopped with […]. Absorption was measured at 450 nm. Candidate peptides that show a high exchange yield (preferably higher than 50%, most preferred higher than 75%) are generally preferred for a generation and production of antibodies or fragments thereof, and/or T cell receptors or fragments thereof, as they show sufficient avidity to the MHC molecules and prevent dissociation of the MHC complexes.
A general note: An ELISA detects its analyte on a solid surface through an enzyme-linked reagent.

Results on 57 substances are retold here after patent US9802997B2, “Peptides and combination of peptides for use in immunotherapy against various tumors” (immatics biotechnologies GmbH, priority 2015, dated 2017).

“59 (ALADGIKSFLL; listed as Homo sapiens) [compound 59]”: the “Peptide exchange (MHC class I binding score, peptide exchange yield)” value (“Peptide exchange” below) is “+++ (≧50 = +++)”.

For the substance “218 (SLTGANITV; listed as Homo sapiens) [compound 218]”, the “Peptide exchange” value is “+++ (≧50 = +++)”.

Regarding “220 (ALSELERVL; listed as Homo sapiens) [compound 220]”, the “Peptide exchange” value was “+++ (≧50 = +++)”.

Regarding “164 (MLIIRVPSV; listed as Homo sapiens) [compound 164]”, the “Peptide exchange” value was “+++ (≧50 = +++)”.

In the case of “193 (ALFHMNILL; listed as Homo sapiens) [compound 193]”, the “Peptide exchange” value is “+++ (≧50 = +++)”.

Take “60 (YLFSQGLQGL; listed as Homo sapiens) [compound 60]”: the “Peptide exchange” value is given as “+++ (≧50 = +++)”.

Regarding “245 (ALLEEEEGV; listed as Homo sapiens) [compound 245]”, the “Peptide exchange” value is reported as “++ (≧20% = ++)”.

With “54 (YLVPGLVAA; listed as Homo sapiens) [compound 54]”, the “Peptide exchange” value is “+++ (≧50 = +++)”.

“98 (FVQEKIPEL; listed as Homo sapiens) [compound 98]”: the “Peptide exchange” value is reported as “+++ (≧50 = +++)”.

With “252 (SLMEKNQSL; listed as Homo sapiens) [compound 252]”, the “Peptide exchange” value was “++ (≧20% = ++)”.

With “277 (KLQEELNKV; listed as Homo sapiens) [compound 277]”, the “Peptide exchange” value is “+++ (≧50 = +++)”.

Consider “228 (SLLELDGINLRL; listed as Homo sapiens) [compound 228]”, for which the “Peptide exchange” value was “+++ (≧50 = +++)”.

Consider “181 (LLWAPTAQA; listed as Homo sapiens) [compound 181]”, for which the “Peptide exchange” value is “+++ (≧50 = +++)”.

Turning to “142 (LLDAAHASI; listed as Homo sapiens) [compound 142]”, the “Peptide exchange” value is listed as “++ (≧20% = ++)”.

In the case of “10 (QLIEKNWLL; listed as Homo sapiens) [compound 10]”, the “Peptide exchange” value was “+++ (≧50 = +++)”.

On to “206 (GLDAFRIFL; listed as Homo sapiens) [compound 206]”, for which the “Peptide exchange” value is listed as “++++ (≧75% = ++++)”.

Take “110 (QIQGQVSEV; listed as Homo sapiens) [compound 110]”: the “Peptide exchange” value is recorded as “++ (≧20% = ++)”.

As to “223 (ALHPVQFYL; listed as Homo sapiens) [compound 223]”, the “Peptide exchange” value is recorded as “+++ (≧50 = +++)”.

For the substance “63 (KLLPMVIQL; listed as Homo sapiens) [compound 63]”, the “Peptide exchange” value is listed as “+++ (≧50 = +++)”.

Regarding “23 (ALLSPLSLA; listed as Homo sapiens) [compound 23]”, the “Peptide exchange” value was “+++ (≧50 = +++)”.

Turning to “42 (KQMSISTGL; listed as Homo sapiens) [compound 42]”, the “Peptide exchange” value was “++ (≧20% = ++)”.

As for “61 (ALYPKEITL; listed as Homo sapiens) [compound 61]”, the “Peptide exchange” value is reported as “+++ (≧50 = +++)”.

For “24 (KVWSDVTPL; listed as Homo sapiens) [compound 24]”, the “Peptide exchange” value is “+++ (≧50 = +++)”.

Regarding “92 (RLFEEVLGV; listed as Homo sapiens) [compound 92]”, the “Peptide exchange” value is on record as “++++ (≧75% = ++++)”.

With “175 (SLLDLVQSL; listed as Homo sapiens) [compound 175]”, the “Peptide exchange” value is reported as “+++ (≧50 = +++)”.

In the case of “131 (SLYPHFTLL; listed as Homo sapiens) [compound 131]”, the “Peptide exchange” value is “+++ (≧50 = +++)”.

Regarding “25 (LLWGHPRVALA; listed as Homo sapiens) [compound 25]”, the “Peptide exchange” value is “+++ (≧50 = +++)”.

Take “123 (QTAPEEAFIKL; listed as Homo sapiens) [compound 123]”: the “Peptide exchange” value is “+ (≧10% = +)”.

Regarding “90 (AILNVDEKNQV; listed as Homo sapiens) [compound 90]”, the “Peptide exchange” value is reported as “++ (≧20% = ++)”.

As for “111 (AQLEGKLVSI; listed as Homo sapiens) [compound 111]”, the “Peptide exchange” value was “+++ (≧50 = +++)”.

“188 (VLGEEQEGV; listed as Homo sapiens) [compound 188]”: the “Peptide exchange” value is “++ (≧20% = ++)”.

In the case of “22 (LMYPYIYHV; listed as Homo sapiens) [compound 22]”, the “Peptide exchange” value was “+++ (≧50 = +++)”.

“65 (SLSEKSPEV; listed as Homo sapiens) [compound 65]”: the “Peptide exchange” value was “++ (≧20% = ++)”.

“85 (KLLDKPEQFL; listed as Homo sapiens) [compound 85]”: the “Peptide exchange” value is recorded as “++ (≧20% = ++)”.

With “234 (VLLNEILEQV; listed as Homo sapiens) [compound 234]”, the “Peptide exchange” value was “++++ (≧75% = ++++)”.

Consider “86 (SLFSNIESV; listed as Homo sapiens) [compound 86]”, for which the “Peptide exchange” value is “+++ (≧50 = +++)”.

With “230 (KLLNMIFSI; listed as Homo sapiens) [compound 230]”, the “Peptide exchange” value is reported as “+++ (≧50 = +++)”.

“249 (YLYQILQGI; listed as Homo sapiens) [compound 249]”: the “Peptide exchange” value was “+++ (≧50 = +++)”.

On to “213 (ILAVDGVLSV; listed as Homo sapiens) [compound 213]”, for which the “Peptide exchange” value is “+++ (≧50 = +++)”.

Turning to “273 (SLNKQIETV; listed as Homo sapiens) [compound 273]”, the “Peptide exchange” value was “++ (≧20% = ++)”.

As for “38 (VLQQESNFL; listed as Homo sapiens) [compound 38]”, the “Peptide exchange” value is listed as “++ (≧20% = ++)”.

Turning to “125 (AALEVLAEV; listed as Homo sapiens) [compound 125]”, the “Peptide exchange” value is on record as “+++ (≧50 = +++)”.

Turning to “145 (ALEEKLENV; listed as Homo sapiens) [compound 145]”, the “Peptide exchange” value is given as “+++ (≧50 = +++)”.

For the substance “84 (FLLEREQLL; listed as Homo sapiens) [compound 84]”, the “Peptide exchange” value is given as “++++ (≧75% = ++++)”.

On to “31 (GLLETTGLLAT; listed as Homo sapiens) [compound 31]”, for which the “Peptide exchange” value was “+++ (≧50 = +++)”.

Take “117 (TLLEGISRA; listed as Homo sapiens) [compound 117]”: the “Peptide exchange” value is “++ (≧20% = ++)”.

For “82 (ILAEEPIYIRV; listed as Homo sapiens) [compound 82]”, the “Peptide exchange” value is “+++ (≧50 = +++)”.

As for “212 (MTLSEIHAV; listed as Homo sapiens) [compound 212]”, the “Peptide exchange” value is reported as “++ (≧20% = ++)”.

For the substance “81 (ILAEEPIYI; listed as Homo sapiens) [compound 81]”, the “Peptide exchange” value was “++ (≧20% = ++)”.

As to “278 (VLEDKVLSV; listed as Homo sapiens) [compound 278]”, the “Peptide exchange” value is “+++ (≧50 = +++)”.

“83 (GLLENSPHL; listed as Homo sapiens) [compound 83]”: the “Peptide exchange” value is reported as “++ (≧20% = ++)”.

“225 (FLPQPVPLSV; listed as Homo sapiens) [compound 225]”: the “Peptide exchange” value was “+++ (≧50 = +++)”.

“55 (HLFDKIIKI; listed as Homo sapiens) [compound 55]”: the “Peptide exchange” value is “+++ (≧50 = +++)”.

As to “41 (IVTEIISEI; listed as Homo sapiens) [compound 41]”, the “Peptide exchange” value is reported as “+++ (≧50 = +++)”.

For “170 (FIAAVVEKV; listed as Homo sapiens) [compound 170]”, the “Peptide exchange” value is on record as “++ (≧20% = ++)”.

As for “176 (VQSGLRILL; listed as Homo sapiens) [compound 176]”, the “Peptide exchange” value was “++ (≧20% = ++)”.

For “1 (KLQEKIQEL; listed as Homo sapiens) [compound 1]”, the “Peptide exchange” value was “++++ (≧75% = ++++)”.
